In the PETadex activity labels:

What was measured:
PET [1] = experiment: Proxy for plastic degradation [Crystallinity (DSC)] (% crystallinity loss); conditions: pH 9.4
PBSA = experiment: Proxy for plastic degradation [kcat/Km (catalytic efficiency)] (mM⁻¹s⁻¹); conditions: pH 8.2
PET [2] = experiment: Proxy for plastic degradation [Released monomer concentration (HPLC/LC-MS) (TA)]; conditions: pH 7
PET [3] = experiment: Proxy for plastic degradation [Released monomer concentration (HPLC/LC-MS) (BA)]; conditions: pH 7

B1: unnamed (protein)
chain: MNFPRASRLMQAAVLGGLMAVSAAATAQTNPYARGPNPTAASLEASAGPFTVRSFTVSRPSGYGAGTVYYPTNAGGTVGAIAIVPGYTARQSSIKWWGPRLASHGFVVITIDTNSTLDQPSSRSSQQMAALRQVASLNGTSSSPIYGKVDTARMGVMGWSMGGGGSLISAANNPSLKAAAPQAPWDSSTNFSSVTVPTLIFACENDSVAPVASSALPIYDSMSRNAKQFLEINGGSHYCANSGNSNQALIGKKGVAWMKRFMDNDTRYSTFACENPNSTRVSDFRTANCSLEHHHHHH
- Proxy for plastic degradation (PET [1]): 3.2

B2: unnamed (protein)
chain: MNFPRASRLMQAAVLGGLMAVSAAATAQTNPYARGPNPTAASLEASAGPFTVRSFTVSRPSGYGAGTVYYPTNAGGTVGAIAIVPGYTARQSSIKWWGPRLASHGFVVITIDTNSTLDQPSSRSSQQMAALRQVASLNGTSSSPIYGKVDTARMGVMGWSMGGGGSLISAANNPSLKAAAPQAPWDSSTNFSSVTVPTLIFACENDSVAPVNSSALPIYDSMSRNAKQFLEINGGSHSCANSGNSNQALIGKKGVAWMKRFMDNDTRYSTFACENPNSTRVSDFRTANCSLEHHHHHH
- Proxy for plastic degradation (PET [1]): 0.6

B3: unnamed (protein)
chain: MNFPRASRLMQAAVLGGLMAVSAAATAQTNPYARGPNPTAASLEASAGPFTVRSFTVSRPSGYGAGTVYYPTNAGGTVGAIAIVPGYTARQSSIKWWGPRLASHGFVVITIDTNSTLDQPSSRSSQQMAALRQVASLNGTSSSPIYGKVDTARMGVMGWSMGGGGSLISAANNPSLKAAAPQAPWDSSTNFSSVTVPTLIFACENDSIAPVNSSALPIYDSMSRNAKQFLEINGGSHSCANSGNSNQALIGKKGVAWMKRFMDNDTRYSTFACENPNSTRVSDFRTANCSLEHHHHHH
- Proxy for plastic degradation (PET [1]): 1.5

B4: unnamed (protein)
chain: MNFPRASRLMQAAVLGGLMAVSAAATAQTNPYARGPNPTAASLEASAGPFTVRSFTVSRPSGYGAGTVYYPTNAGGTVGAIAIVPGYTARQSSIKWWGPRLASHGFVVITIDTNSTLDQPSSRSSQQMAALRQVASLNGTSSSPIYGKVDTARMGVMGWSMGGGGSLISAANNPSLKAAAPQAPWDSSTNFSSVTVPTLIFACENDSVAPVASSALPIYDSMSRNAKQFLEINGGSHSCANSGNSNQALIGKKGVAWMKRFMDNDTRYSTFACENPNSTRVSDFRTANCSLEHHHHHH
- Proxy for plastic degradation (PET [1]): 2

B5: unnamed (protein)
chain: MLAVWDDTLAHPVRGRDRELATLTGLLDNTSGRRGTGMVVVGAPGTGKTTLLNALVEHAEGFQVLWAEGSAAESDVRFAGVEQLLRPLESLVSLLPDDRGRALRPVWGLPADDEGQVGSLAVPAAVSALLGLAARRQPVLCCVDSAHLLDSASLSALAFAARRAHHAGVVFVFAVDCTADTEVDTETSVWGELPRLRLGRLDDEAAHALLRDRLGASLPHDLADSLLDVGHGHPLALVELAESLTPEHLCGRAAPPSSPPPEGRLCRTLGHRLSALSEGAREVVALAGISEGLDEQLTCRVLPHHRSTLAEAVRSGLVVLDGDTVRTAADTVPSALLAALTPQDIVQAHHRMAEAAEAVGDRDRAVWHRAAIAMAPDPALVADLDDIAERARAAAAHATAAAASERAAALTSDTKERARRLVAAATDHWASGRPQRARTALRLAAPLSDSVLGARVSRLAGEIELRRGDPSVAATKLISTARQLASTHRTLAASALMLAGEASFVAGDNARYCLTAKDAALLCGPEEWPATRVVREHFTAMSATFRGEHSAAAAPLRSLVELGETTPDPTAKTLASQAAFTLGDAERSRDLALQAVVCARARGDESGVPWALVYAALSALLSGQLSAASTTALEGLQVARSLGQSNSAVDHVTVLAMLAALQGDEETALQRLQAANTELAERGLGRPSALATWAAACVDLAHDRPAEAFDRFRRMTVGRSRHCVPLRVMAVPHFVEAAVRCGEKEVARRSLVTFEHWANTTGGTARVALAHRCHALLAEQDGEAQERFTEAVRLHREADAPYDLAVTQLLYASHLRRSRRPKQARELLREAVQLFDDLGATHWVERASQELRACGHPGRGKPHLSRGLSPQQERIAQLVADGATNKEIATQLFISHRTVDHHLRNIFAKLDVRSRVQLAALFR
- Proxy for plastic degradation (PBSA): 375

B6: unnamed (protein)
chain: MTHQIVTTQYGKVKGTTENGVHKWKGIPYAKPPVGQWRFKAPEPPEVWEDVLDATAYGPICPQPSDLLSLSYTELPRQSEDCLYVNVFAPDTPSQNLPVMVWIHGGAFYLGAGSEPLYDGSKLAAQGEVIVVTLNYRLGPFGFLHLSSFNEAYSDNLGLLDQAAALKWVRENISAFGGDPDNVTVFGESAGGMSIAALLAMPAAKGLFQKAIMESGASRTMTKEQAASTSAAFLQVLGINEGQLDKLHTVSAEDSLKAADQLRIAEKENIFQLFFQPALDPKTLPEEPEKAIAEGAASGIPLLIGTTRDEGYLFFTPDSDVHSQETLDAALEYLLGKPLAEKAADLYPRSLESQIHMMTDLLFWRPAVAYASAQSHYAPVWMYRFDWHPKKPPYNKAFHALELPFVFGNLDGLERMAKAEITDEVKQLSHTIQSAWITFAKTGNPSTEAVNWPAYHEETRETLILDSEITIENDPESEKRQKLFPSKGE
- Proxy for plastic degradation (PET [2]; 1 h): 0 µM
- Proxy for plastic degradation (PET [2]; 2 h): 100 µM
- Proxy for plastic degradation (PET [3]; 1 h): 10 mM
- Proxy for plastic degradation (PET [3]; 2 h): 1250 mM
